The assay concerns the target T1, GST p53 (amino acids 1-393), GST fusion protein of full-length p53 (human, UniProt P04637 1-393).
T1 construct: not shown: glutathione S-transferase (GST) fusion partner
As to the kind of experiment: in vitro interaction of truncated mSin3a with GST p53. As for the experimental part:
GST-fusion proteins were prepared from E. coli cells as described (Murphy et al., Genes & Devel. 10:2971–2980, 1996). One microgram of GST or fusion protein was bound to glutathione sepharose beads and incubated with 10 uL of ^35S methionine labeled, in vitro translated proteins generated in a coupled transcription/translation system (TNT, Promega). Binding occurred in 300 uL of binding buffer (20 mM Hepes pH 7.9/150 mM KC1/1 mM EDTA/4 mM MgC12/1 mM DTT/0.02% NP-40/10% glycerol) supplemented with protease inhibitors. Proteins were bound for 30 minutes at 4 degrees, and bound complexes were washed three times in wash buffer with constant vortexing (20 mM Hepes pH 7.9/150 mM KC1/1 mM EDTA/4 mM MgCl2/1 mM DTT/0.1% NP-40/10% glycerol). Bound proteins were eluted in 1× Laemmli sample buffer and separated on 7.5% or 10% SDS-PAGE. […] Bound complexes were washed twice in NP-40 buffer, once in RIPA buffer, and resolved on SDS-PAGE.

T1 sequence (P04637 whole entry, the tested form may be a part): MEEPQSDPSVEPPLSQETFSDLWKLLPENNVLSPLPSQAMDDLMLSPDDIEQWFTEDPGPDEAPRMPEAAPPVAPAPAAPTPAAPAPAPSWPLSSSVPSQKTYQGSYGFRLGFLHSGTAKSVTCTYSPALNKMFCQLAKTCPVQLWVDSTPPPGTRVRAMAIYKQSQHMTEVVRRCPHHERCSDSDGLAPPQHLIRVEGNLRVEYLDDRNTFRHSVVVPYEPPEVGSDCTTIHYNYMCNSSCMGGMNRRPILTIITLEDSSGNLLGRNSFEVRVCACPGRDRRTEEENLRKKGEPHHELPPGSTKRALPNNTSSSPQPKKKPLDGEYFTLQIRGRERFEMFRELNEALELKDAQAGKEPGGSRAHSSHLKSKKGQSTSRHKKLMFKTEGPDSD

B1: truncated mSin3a, amino acids 112-192 (paired amphipathic helix 1) (other, UniProt Q60520 112-192, looked up)
chain: VQGQQQFQRLKVEDALSYLDQVKLQFGSQPQVYNDFLDIMKEFKSQSIDTPGVISRVSQLFKGHPDLIMGFNTFLPPGYKI
notes: range 112-192; Printed PAM is read as PAH1; also called PAM (so in the source); PAH1
Take B1: the binding result is given as “no binding”.

B2: truncated mSin3a, amino acids 297-386 (PAH 2) (other, UniProt Q60520 297-386, looked up)
chain: QNNQPVEFNHAINYVNKIKNRFQGQPDIYKAFLEILHTYQKEQRNAKEAGGNYTPALTEQEVYAQVARLFKNQEDLLSEFGQFLPDANSS
notes: range 297-386
B2: the binding result is listed as “no binding”.

B3: truncated mSin3a, amino acids 297-529 (PAH2-3) (other, UniProt Q60520 297-529, looked up)
chain: QNNQPVEFNHAINYVNKIKNRFQGQPDIYKAFLEILHTYQKEQRNAKEAGGNYTPALTEQEVYAQVARLFKNQEDLLSEFGQFLPDANSSVLLSKTTAEKVDSVRNDHGGTVKKPQLNNKPQRPSQNGCQIRRHSGTGATPPVKKKPKLMSLKESSMADASKHGVGTESLFFDKVRKALRSAEAYENFLRCLVIFNQEVISRAELVQLVSPFLGKFPELFNWFKNFLGYKESV
notes: range 297-529
As to B3, the binding result is listed as “binds”.

Source of the values: patent US7053194 (FOX CHASE CANCER CENTER, dated 2006).
